Assay results as given in patent US20200181247A1.

How the values were obtained:
A-beta42 Monomer (human) [1] = assay: SPR; purified antibody immobilized, A-beta preparation flowed over
[2] = target: A-beta42 Oligomer (synthetic, prepared in F12 medium) (human); assay: as above
[3] = target: A-beta42 Oligomer (synthetic, prepared in F12 medium) (human); assay: SPR (MASS-1) direct binding; hybridoma culture supernatant over immobilized A-beta42 oligomer
[4] = target: T1, linear CGHHQKG (SEQ ID NO: 12) conjugated to BSA; assay: SPR (MASS-1) direct binding; hybridoma culture supernatant over immobilized BSA-conjugated peptide
T1 sequence (peptide, linear (not cyclized); conjugated to BSA): CGHHQKG

[5] = target: T2, cyclo(CGHHQKG) (SEQ ID NO: 12) conjugated to BSA; assay: as above
T2 sequence (peptide, cyclic peptide, cyclo(CGHHQKG); conjugated to BSA): CGHHQKG

A-beta42 Monomer (human) [6] = assay: SPR (MASS-1) direct binding; hybridoma culture supernatant over immobilized A-beta42 monomer
[7] = target: commercially-prepared stable A-beta42 Oligomers (SynAging SAS) (human); assay: SPR; antibody covalently immobilized, stable A-beta42 oligomers (1 microM) injected
commercially-prepared stable A-beta42 Oligomers (SynAging SAS) (human), sequence (peptide, as listed by the source): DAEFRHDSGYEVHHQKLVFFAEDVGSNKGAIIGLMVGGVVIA

A-beta42 Oligomer (synthetic, prepared in F12 medium) (human), sequence (peptide, as listed by the source): as above
A-beta42 Monomer (human), sequence (peptide, as listed by the source): as above

B1: 301-3 (antibody, part only; not given: Light chain, two candidates, IgG3, V domains shown, part only)
VH: EVQLVESGGGLVKPGGSLKLSCAASGFTFSDYYMYWVRQTPEKRLEWVATISDGGSYTSYPDSVKGRFTISRDSAKNNLYLQMSSLKSEDTAMYYCARDYYGSNSYTSGFAYWGQGTLVTVSA
- binding response (RU) (A-beta42 Monomer (human) [1]): -23.8 RU
- binding response (RU) [2]: 15.5 RU
- binding response (RU) [3]: 56.8 RU
- binding response (RU) [4]: 60.6 RU
- binding response (RU) [5]: 469 RU
- binding response (RU) (A-beta42 Monomer (human) [6]): -1.8 RU
- binding response units (BRUs), average [7]: 14.5 BRU
